The record followed here is article PMC11418127, “Structures of LIG1 uncover the mechanism of sugar discrimination against 5′-RNA-DNA junctions during ribonucleotide excision repair”.

For data set [1], the target named is LIG1 WT (C-terminal, Δ261) (UniProt P18858 262-919). The experiment in a line: X-ray crystallography; AMP covalently bound to K568 (step 1); 1 mM ATP, 1 mM EDTA; Crystallization: 20 mM Tris-HCl pH 7.0, 200 mM NaCl, 1 mM DTT, 1 mM EDTA, 1 mM ATP, LIG1 27 mg/ml, DNA:protein 1.4:1, hanging drop at 20 °C. The conditions noted are these: protein: recombinant; tags: 6xHis; nicked duplex: 18-nt template, 11-nt upstream, 7-nt downstream; blunt outer ends.
LIG1 WT (C-terminal, Δ261), sequence (P18858 262-919, stated change not applied): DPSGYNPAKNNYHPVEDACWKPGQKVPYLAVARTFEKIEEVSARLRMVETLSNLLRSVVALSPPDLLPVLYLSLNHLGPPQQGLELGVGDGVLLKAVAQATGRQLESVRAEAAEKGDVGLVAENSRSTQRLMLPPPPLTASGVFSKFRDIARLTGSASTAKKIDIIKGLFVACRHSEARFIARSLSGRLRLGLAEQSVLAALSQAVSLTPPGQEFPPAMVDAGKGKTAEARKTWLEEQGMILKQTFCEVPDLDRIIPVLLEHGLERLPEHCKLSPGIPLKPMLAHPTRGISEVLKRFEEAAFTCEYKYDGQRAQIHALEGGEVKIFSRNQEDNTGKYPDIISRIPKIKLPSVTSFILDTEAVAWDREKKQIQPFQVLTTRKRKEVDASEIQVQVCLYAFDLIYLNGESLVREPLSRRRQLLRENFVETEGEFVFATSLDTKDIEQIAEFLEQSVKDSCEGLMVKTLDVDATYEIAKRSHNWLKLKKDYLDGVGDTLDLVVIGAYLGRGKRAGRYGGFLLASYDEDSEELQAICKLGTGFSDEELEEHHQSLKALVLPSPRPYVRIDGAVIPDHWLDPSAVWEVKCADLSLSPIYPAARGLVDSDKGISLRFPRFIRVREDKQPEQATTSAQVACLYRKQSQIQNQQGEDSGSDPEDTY

The target of data set [2] is LIG1 EE/AA (C-terminal, Δ261) (UniProt P18858 262-919, E346A;E592A). The description is as above. Particulars: protein: recombinant; tags: 6xHis; nicked duplex: 18-nt template, 11-nt upstream, 7-nt downstream; blunt outer ends.
LIG1 EE/AA (C-terminal, Δ261), sequence (P18858 262-919 E346A/E592A): as the sequence (P18858 262-919, stated change not applied) above, with E85A, E331A counted along it

B1: nick DNA 5'-rG:C (mixed)
DNA 1: GTCCGACCACGCATCAGC
DNA 2: GCTGATGCGTG
DNA 3: GTCGGAC
modifications: ribonucleotide rG at position 1 of downstream strand (strand 3); 5'-phosphate on strand 3
Take B1: the binding result in data set [1] and in data set [2] was “binds” in each case.
